Assays:
Thrombin (Homo sapiens) [1] = molecular target: T1, Thrombin (Homo sapiens) (UniProt P00734+P00734); test: FP
Thrombin (Homo sapiens) [2] = molecular target: T1, Thrombin (Homo sapiens); test: MST; conditions: Phe at library positions 5 and 3, C12 at position 4, Nap at position 1 (3' end) (unnatural monomers); 2Bind, N=2, 100 nM aptamer, buffer without Triton X; unit given as nmol

GGTPTGGPHECTGGTTGGG [Aptamer2] showed a Kd (Thrombin (Homo sapiens) [1]; Trp at library position 7, Phe at position 5, C12 at position 4 (unnatural monomers), fluorescence anisotropy, unit given as nmol) of 10 nM and a Kd (Thrombin (Homo sapiens) [1]; Trp at library position 7, Phe at position 5, C12 at position 4 (unnatural monomers), with 0.1 mg/mL salmon sperm DNA, N=3, unit given as nmol) of 10 nM.

With GGGTGGPHECTGGPHETGGNAP [Aptamer3] the Kd (Thrombin (Homo sapiens) [1]; Phe at library positions 5 and 3, C12 at position 4, Nap at position 1 (3' end) (unnatural monomers), fluorescence anisotropy with 0.1 mg/mL sheared salmon sperm DNA, N=3, unit given as nmol) was 5 nM, the Kd (Thrombin (Homo sapiens) [1]; Phe at library positions 5 and 3, C12 at position 4, Nap at position 1 (3' end) (unnatural monomers), fluorescence anisotropy, thrombin binding buffer, unit given as nmol) was 6 nM and the Kd (Thrombin (Homo sapiens) [2]) was 20 nM.

With “CGTCGAGGCCCGTGCTTACCCGTGACCTTCTTAGGAGGTTGGNGTGGNTGGTTTTTACACGTCACGCCTTTTTTTTT [TBA2F]” the Kd (Thrombin (Homo sapiens) [1]; branched DNA-encoded construct with BU, aptamer branch GGTTGGC12GTGGAlkTGGTTTTT (C12 and Alk unnatural phosphodiester monomers), same buffer as TBA1F) was 89 nM.

In the case of “GGTTGGTGTGGTTGGNAP [Aptamer4 of Table 9 (Nap at position 1; Aptamer5 in FIG. 12)]”, the Kd (Thrombin (Homo sapiens) [1]; Nap unnatural monomer at library position 1 (3' end), unit given as nmol, Aptamer4/5 naming swapped in FIG. 12, Table 9 sequence used) is reported as 24 nM.

With GGTTGGPHEGTGGTTGGT [Aptamer1] the Kd (Thrombin (Homo sapiens) [1]; Phe unnatural monomer at library position 5, fluorescence anisotropy, unit given as nmol) was 26 nM.

Reference: US20230220381
